Data: US20190016794A1 (Boehringer Ingelheim, published 2019)
Several values for one entry are separate records, joined by “and”; a condition that tells them apart may be missing. Equal entries are not always repeated.

T1: recombinant human IL23 (human, UniProt P29460 23-328)
T1 sequence 1: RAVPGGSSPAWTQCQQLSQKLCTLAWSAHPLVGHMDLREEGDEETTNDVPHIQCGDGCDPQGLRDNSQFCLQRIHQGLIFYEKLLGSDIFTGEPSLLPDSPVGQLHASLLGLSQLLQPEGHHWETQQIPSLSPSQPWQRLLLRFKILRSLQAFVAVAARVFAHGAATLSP
T1 sequence 2: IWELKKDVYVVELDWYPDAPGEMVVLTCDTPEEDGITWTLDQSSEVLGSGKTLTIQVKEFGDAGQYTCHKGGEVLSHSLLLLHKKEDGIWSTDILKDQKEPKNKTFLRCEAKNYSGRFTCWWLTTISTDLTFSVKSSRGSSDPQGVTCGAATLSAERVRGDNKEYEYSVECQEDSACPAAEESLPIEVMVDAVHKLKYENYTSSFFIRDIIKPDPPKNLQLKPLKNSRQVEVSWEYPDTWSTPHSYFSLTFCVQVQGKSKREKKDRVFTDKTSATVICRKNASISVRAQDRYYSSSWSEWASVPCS

T2: recombinant cynomolgus IL23 (cynomolgus)
T2 chain 1: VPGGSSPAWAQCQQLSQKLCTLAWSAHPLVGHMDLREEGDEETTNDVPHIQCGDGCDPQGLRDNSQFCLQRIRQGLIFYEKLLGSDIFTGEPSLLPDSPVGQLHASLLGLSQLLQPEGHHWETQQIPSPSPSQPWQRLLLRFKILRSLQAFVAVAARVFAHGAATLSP
T2 chain 2: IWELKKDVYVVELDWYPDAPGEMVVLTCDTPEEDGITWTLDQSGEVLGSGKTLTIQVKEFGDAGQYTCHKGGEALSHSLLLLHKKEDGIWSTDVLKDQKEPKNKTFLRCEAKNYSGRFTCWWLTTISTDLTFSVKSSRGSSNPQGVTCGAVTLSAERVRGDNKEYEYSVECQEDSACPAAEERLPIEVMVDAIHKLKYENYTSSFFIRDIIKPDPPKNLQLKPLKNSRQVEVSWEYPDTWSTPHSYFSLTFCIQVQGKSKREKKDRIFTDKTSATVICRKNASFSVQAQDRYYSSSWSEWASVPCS

B1: Control Antibody 3 (IL23 monoclonal antibody) (antibody, V domains shown)
VH: QVQLVQSGAEVKKPGSSVKVSCKASGYTFTDQTIHWMRQAPGQGLEWIGYIYPRDDSPKYNENFKGKVTITADKSTSTAYMELSSLRSEDTAVYYCAIPDRSGYAWFIYWGQGTLVTVSS
VL: DIQMTQSPSSLSASVGDRVTITCKASRDVAIAVAWYQQKPGKVPKLLIYWASTRHTGVPSRFSGSGSRTDFTLTISSLQPEDVADYFCHQYSSYPFTFGSGTKLEIK
B2: Control antibody 2 (TNFa monoclonal antibody) (antibody, V domains shown)
VH: QVQLVESGGGVVQPGRSLRLSCAASGFIFSSYAMHWVRQAPGNGLEWVAFMSYDGSNKKYADSVKGRFTISRDNSKNTLYLQMNSLRAEDTAVYYCARDRGIAAGGNYYYYGMDVWGQGTTVTVSS
VL: EIVLTQSPATLSLSPGERATLSCRASQSVYSYLAWYQQKPGQAPRLLIYDASNRATGIPARFSGSGSGTDFTLTISSLEPEDFAVYYCQQRSNWPPFTFGPGTKVDIK
notes: Monoclonal antibody
B3: Compound P (bispecific antibody)
chain 1: not shown
chain 2: EIVLTQSPATLSLSPGERATLSCRASQSVYSYLAWYQQKPGQAPRLLIYDASNRATGIPARFSGSGSGTDFTLTISSLEPEDFAVYYCQQRSNWPPFTFGPGTKVDIKGGGSGGGGQVQLVQSGAEVKKPGSSVKVSCKASGYTFTDQTIHWMRQAPGQGLEWIGYIYPRDDSPKYNENFKGKVTITADKSTSTAYMELSSLRSEDTAVYYCAIPDRSGYAWFIYWGQGTLVTVSSVEPKSSRTVAAPSVFIFPPSDEQLKSGTASVVCLLNNFYPREAKVQWKVDNALQSGNSQESVTEQDSKDSTYSLSSTLTLSKADYEKHKVYACEVTHQGLSSPVTKSFNRGEC
B4: Compound F (bispecific antibody)
chain 1: DIQMTQSPSSLSASVGDRVTITCKASRDVAIAVAWYQQKPGKVPKLLIYWASTRHTGVPSRFSGSGSRTDFTLTISSLQPEDVADYFCHQYSSYPFTFGSGTKLEIKGGGSGGGGQVQLVESGGGVVQPGRSLRLSCAASGFIFSSYAMHWVRQAPGNGLEWVAFMSYDGSNKKYADSVKGRFTISRDNSKNTLYLQMNSLRAEDTAVYYCARDRGIAAGGNYYYYGMDVWGQGTTVTVSSFNRGESASTKGPSVFPLAPSSKSTSGGTAALGCLVKDYFPEPVTVSWNSGALTSGVHTFPAVLQSSGLYSLSSVVTVPSSSLGTQTYICNVNHKPSNTKVDKRVEPKSCDKTHTCPPCPAPEAAGGPSVFLFPPKPKDTLYITREPEVTCVVVDVSHEDPEVKFNWYVDGVEVHNAKTKPREEQYNSTYRVVSVLTVLHQDWLNGKEYKCKVSNKALPAPIEKTISKAKGQPREPQVYTLPPSREEMTKNQVSLTCLVKGFYPSDIAVEWESNGQPENNYKTTPPVLDSDGSFFLYSKLTVDKSRWQQGNVFSCSVMHEALHNHYTQKSLSLSPGK
chain 2: B3 chain 2
B5: Compound G (bispecific antibody)
chain 1: EIVLTQSPATLSLSPGERATLSCRASQSVYSYLAWYQQKPGQAPRLLIYDASNRATGIPARFSGSGSGTDFTLTISSLEPEDFAVYYCQQRSNWPPFTFGPGTKVDIKGGGSGGGGQVQLVQSGAEVKKPGSSVKVSCKASGYTFTDQTIHWMRQAPGQGLEWIGYIYPRDDSPKYNENFKGKVTITADKSTSTAYMELSSLRSEDTAVYYCAIPDRSGYAWFIYWGQGTLVTVSSLGGGSGASTKGPSVFPLAPSSKSTSGGTAALGCLVKDYFPEPVTVSWNSGALTSGVHTFPAVLQSSGLYSLSSVVTVPSSSLGTQTYICNVNHKPSNTKVDKRVEPKSCDKTHTCPPCPAPEAAGGPSVFLFPPKPKDTLYITREPEVTCVVVDVSHEDPEVKFNWYVDGVEVHNAKTKPREEQYNSTYRVVSVLTVLHQDWLNGKEYKCKVSNKALPAPIEKTISKAKGQPREPQVYTLPPSREEMTKNQVSLTCLVKGFYPSDIAVEWESNGQPENNYKTTPPVLDSDGSFFLYSKLTVDKSRWQQGNVFSCSVMHEALHNHYTQKSLSLSPGK
chain 2: DIQMTQSPSSLSASVGDRVTITCKASRDVAIAVAWYQQKPGKVPKLLIYWASTRHTGVPSRFSGSGSRTDFTLTISSLQPEDVADYFCHQYSSYPFTFGSGTKLEIKGGGSGGGGQVQLVESGGGVVQPGRSLRLSCAASGFIFSSYAMHWVRQAPGNGLEWVAFMSYDGSNKKYADSVKGRFTISRDNSKNTLYLQMNSLRAEDTAVYYCARDRGIAAGGNYYYYGMDVWGQGTTVTVSSLGGGSGRTVAAPSVFIFPPSDEQLKSGTASVVCLLNNFYPREAKVQWKVDNALQSGNSQESVTEQDSKDSTYSLSSTLTLSKADYEKHKVYACEVTHQGLSSPVTKSFNRGEC

How the values were obtained:
recombinant human IL23 [1] = target: T1, recombinant human IL23; assay: cell-based or functional assay
recombinant human IL23 [2] = target: T1, recombinant human IL23; assay: cell-based or functional assay; remark: listed apart in the source
recombinant human IL23 [3] = target: T1, recombinant human IL23; assay: cell-based or functional assay; remark: listed apart in the source
recombinant human IL23 [4] = target: T1, recombinant human IL23; assay: cell-based or functional assay; remark: listed apart in the source
recombinant human IL23 [5] = target: T1, recombinant human IL23; assay: cell-based or functional assay; remark: listed apart in the source
[6] = target: T2, recombinant cynomolgus IL23; assay: cell-based or functional assay
recombinant human IL23 [7] = target: T1, recombinant human IL23; assay: cell-based or functional assay; remark: listed apart in the source
cynomolgus TNF-alpha = cynomolgus TNF-alpha (cynomolgus, UniProt P79337 77-233, limits assumed); assay: cell-based or functional assay
membrane bound TNF-alpha [8] = target: T3, membrane bound TNF-alpha; assay: flow cytometry, mTNF-transfected CHO cells (geomean)
T3 construct: whole, on cells; also called mTNF; membrane expressed TNF-alpha
Description: (§1) All reagents were prepared in flow cytometry staining buffer (BioLegend). Membrane expressed TNF-alpha transfected cell lines (Jurkat and CHO) and parental cell lines were harvested from tissue culture vessels, washed, counted and resuspended to 1×10̂6 cells/ml in flow cytometry staining buffer. One hundred microliters of the cell suspension was added to 96 well microtiter plates and placed on ice. Titrations of test compounds were prepared and 50 uL was added to the cells. After sixty minute incubation on ice, the cell+test compounds were washed and 50 uL of a secondary antibody (Jackson ImmunoResearch) was added. The samples were incubated in the dark, at 4 C, for 60 minutes, followed by washes. After a final wash the cells were resuspended in 60 uL of fixative (BD Bioscience). Median fluorescence was determined for each sample in a flow cytometer and plotted versus the concentration of the test sample. EC₅₀ values were calculated using the 4 Parameter Logistic enabled by the Excel add-in XLfit (Activity Base software, ID Business Solutions, Ltd.).

membrane bound TNF-alpha [9] = target: T3, membrane bound TNF-alpha; assay: flow cytometry, mTNF-transfected Jurkat cells (geomean)
Description: as §1

human TNF-alpha [10] = target: T4, human TNF-alpha (human, UniProt P01375 77-233); assay: cell-based or functional assay
human TNF-alpha [11] = target: T4, human TNF-alpha; assay: cell-based or functional assay; remark: listed apart in the source
human TNF-alpha [12] = target: T4, human TNF-alpha; assay: cell-based or functional assay; remark: listed apart in the source
human TNF-alpha [13] = target: T4, human TNF-alpha; assay: cell-based or functional assay; remark: listed apart in the source

Chain of cynomolgus TNF-alpha (P79337 77-233 limits assumed): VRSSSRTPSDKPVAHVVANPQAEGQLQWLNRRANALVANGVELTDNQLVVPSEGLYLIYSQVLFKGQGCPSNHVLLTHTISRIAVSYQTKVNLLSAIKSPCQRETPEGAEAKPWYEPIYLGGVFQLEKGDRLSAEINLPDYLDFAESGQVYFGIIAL
T4 sequence (P01375 77-233 limits assumed): as the sequence (P79337 77-233 limits assumed) above, with V37L, T44R, N72T, L138R counted along it
T3 sequence (P01375 whole entry): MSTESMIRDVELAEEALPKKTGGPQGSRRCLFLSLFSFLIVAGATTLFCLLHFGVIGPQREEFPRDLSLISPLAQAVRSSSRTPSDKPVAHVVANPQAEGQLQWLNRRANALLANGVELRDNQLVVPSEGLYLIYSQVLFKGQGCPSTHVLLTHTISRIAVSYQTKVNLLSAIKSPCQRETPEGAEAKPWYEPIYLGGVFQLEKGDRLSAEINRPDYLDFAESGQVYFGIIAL

Binder	IL23A pSTAT3 (MG) IC50 (recombinant human IL23 [1])	IL23A pSTAT3 (MG) IC90 (recombinant human IL23 [1])	hIL23 pSTAT3 DB assay IC50 (recombinant human IL23 [2])	hIL23 pSTAT3 DB assay IC90 (recombinant human IL23 [2])	GEOMEAN IC50, IL-23-dependent STAT3 activation (luciferase) (recombinant human IL23 [3])	GEOMEAN IC90, IL-23-dependent STAT3 activation (luciferase) (recombinant human IL23 [3])	Dual Phospho DB-pSTAT3 IC50 (recombinant human IL23 [4])	Dual Phospho DB-pSTAT3 IC90 (recombinant human IL23 [4])	huIL23 MSA IC50 (recombinant human IL23 [5])	huIL23 MSA IC90 (recombinant human IL23 [5])	CynoIL23 MSA IC50 [6]	CynoIL23 MSA IC90 [6]	IC50, IL-23-dependent STAT3 activation (DB-STAT3Luc10 luciferase) (recombinant human IL23 [7])	HeLa IL8 Cyno-TNF IC50 (cynomolgus TNF-alpha)	HeLa IL8 Cyno-TNF IC90 (cynomolgus TNF-alpha)	HeLa IL8 Hi-Hu-TNF IC50 (human TNF-alpha [10])	HeLa IL8 Hi-Hu-TNF IC90 (human TNF-alpha [10])	HeLa IL8 Lo-Hu-TNF IC50 (human TNF-alpha [10])	HeLa IL8 Lo-Hu-TNF IC90 (human TNF-alpha [10])	L929 TNF Cytotox IC50 (human TNF-alpha [11])	other results
B1	35 pM	140 pM	160 pM	310 pM	93.1 pM	191 pM	89 pM	230 pM	53 pM	350 pM	17 pM	240 pM	96.5 pM and 104 pM and 80.3 pM	–	–	–	–	–	–	–	–
B2	–	–	–	–	–	–	–	–	–	–	–	–	–	280 pM	1200 pM	–	–	–	–	–	EC50 (membrane bound TNF-alpha [8]): 310 pM; EC50 (membrane bound TNF-alpha [9]): 230 pM
B3	69 pM	480 pM	300 pM	620 pM	–	–	340 pM	630 pM	200 pM	1400 pM	97 pM	1500 pM	–	210 pM	810 pM	410 pM	810 pM	9.2 pM	36 pM	3.4 pM	L929 TNF Cytotox IC90 (human TNF-alpha [11]): 14 pM; TNF-IL8 Whole Blood IC50 (human TNF-alpha [12]): 290 pM; TNF-IL8 Whole Blood IC90 (human TNF-alpha [12]): 420 pM; Dual Phospho Jurkat-pNf-Kb IC50 (human TNF-alpha [13]): 290 pM; Dual Phospho Jurkat-pNf-Kb IC90 (human TNF-alpha [13]): 340 pM
B4	90 pM	650 pM	260 pM	600 pM	–	–	360 pM	980 pM	170 pM	2300 pM	69 pM	1500 pM	–	190 pM	740 pM	350 pM	660 pM	7.9 pM	39 pM	2.5 pM	L929 TNF Cytotox IC90 (human TNF-alpha [11]): 10 pM; TNF-IL8 Whole Blood IC50 (human TNF-alpha [12]): 310 pM; TNF-IL8 Whole Blood IC90 (human TNF-alpha [12]): 450 pM; Dual Phospho Jurkat-pNf-Kb IC50 (human TNF-alpha [13]): 280 pM; Dual Phospho Jurkat-pNf-Kb IC90 (human TNF-alpha [13]): 760 pM
B5	–	–	–	–	203 pM	831 pM	–	–	–	–	–	–	220 pM	–	–	–	–	–	–	–	First test IC50, IL-23-dependent STAT3 activation (luciferase) (recombinant human IL23 [3]): 187 pM; IC90, IL-23-dependent STAT3 activation (DB-STAT3Luc10 luciferase) (recombinant human IL23 [7]): 1150 pM
